The supplement of paper PMC7125110
± gives the standard error. This sample holds only a part of the variants without activity.

B1: glmS ribozyme (parent)
chain: AUAAAAGCGCCAGAACUACAGAAAUGUAGUUGACGAGGAGGAGGUUUAUCGAAUUUUCGGCGGAUGCCUCCAAA

Columns and labels:
Settings in all cases: with glucosamine-6-phosphate
glucosamine-6-phosphate [1] = variants of: B1; experiment: self-cleavage kobs at 640 uM GlcN6P; higher = faster cleavage; RNA array
Method in brief: (§1)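 Barcoded ribozyme variants on sequenced MiSeq chips were transcribed in situ by E. coli RNA polymerase and followed at 37 °C through a hybridised Cy3 probe. Glucosamine-6-phosphate at 40 μM to 10 mM in HEPES/KCl/Mg(OAc)2 buffer was flowed in, and tiles were imaged over ~14 h. Signals were normalised to baseline and to non-cleaving reference variants, and per-tile medians were fit to one- or two-exponential decays to give kobs. Weighted Michaelis–Menten fits across concentrations gave kcat and KM.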

glucosamine-6-phosphate [2] = variants of: B1; experiment: self-cleavage kobs at 2500 uM GlcN6P; higher = faster cleavage; RNA array
Method in brief: as §1

glucosamine-6-phosphate [3] = variants of: B1; experiment: self-cleavage kobs at 10000 uM GlcN6P; higher = faster cleavage; RNA array
Method in brief: as §1

| Variant | self-cleavage kobs at 640 uM GlcN6P (glucosamine-6-phosphate [1]) [s⁻¹] | self-cleavage kobs at 2500 uM GlcN6P (glucosamine-6-phosphate [2]) [s⁻¹] | self-cleavage kobs at 10000 uM GlcN6P (glucosamine-6-phosphate [3]) [s⁻¹] |
| --- | --- | --- | --- |
| G13C A15C C61U A64U C67A | < 1e-05 |  |  |
| C34A U46C A53G G60C C61A | < 1e-05 | < 1e-05 |  |
| G29C G41C C68G | < 1e-05 | < 1e-05 | < 1e-05 |
| U31C G38U A39C G43U G62A U69G | < 1e-05 |  |  |
| G35A G51A C58U | < 1e-05 |  |  |
| A12C C58U C70U | 6.75e-05 ± 2.5e-05 | 7.09e-05 ± 3.2e-05 |  |
| G9U U56A G63U A64U | < 1e-05 |  |  |
| C58G C68A U69G | 0.000107 ± 3.5e-05 | 5.37e-05 ± 2.4e-05 |  |
| U31C A39C G51C | < 1e-05 |  |  |
| U55G G63U U65G | < 1e-05 | < 1e-05 |  |
| U55G C67A C68G | 8.64e-05 ± 2.7e-05 | 7.14e-05 ± 1.6e-05 |  |
| G41A A42G U45G | 0.0066 ± 0.002 |  |  |
| C11G U30A A33C | < 1e-05 | < 1e-05 |  |
| A36G G51C C71G | < 1e-05 | < 1e-05 |  |
| C11G C71G | 0.000382 ± 0.00018 |  |  |
| A36G U47G | < 1e-05 |  | < 1e-05 |
| U31G G41A U46G | 7.29e-05 ± 2.3e-05 | 0.00021 ± 5.3e-05 |  |
| C11A A15G G29A | < 1e-05 |  |  |
| C8U C50G G51U U56C | < 1e-05 |  |  |

| Variant | self-cleavage kobs at 640 uM GlcN6P (glucosamine-6-phosphate [1]) [s⁻¹] | self-cleavage kobs at 2500 uM GlcN6P (glucosamine-6-phosphate [2]) [s⁻¹] | self-cleavage kobs at 10000 uM GlcN6P (glucosamine-6-phosphate [3]) [s⁻¹] |
| --- | --- | --- | --- |
| A6G G35U C50U | < 1e-05 |  |  |
| U30A A33G A36C | < 1e-05 |  |  |
| A12C G35A C70U | < 1e-05 | < 1e-05 |  |
| A15U G40C A52U | < 1e-05 |  |  |
| C8G G13U U55C C58U | < 1e-05 | < 1e-05 |  |
| A15G G38U | < 1e-05 |  |  |
| A33C G66C | < 1e-05 |  |  |
| A14U G29C A48G U65A | < 1e-05 |  |  |
| G7U G32C G38C A42U C50U | < 1e-05 |  |  |
| G7U A39G U47C G59C | < 1e-05 |  |  |
| A6U U31G C67G | < 1e-05 |  |  |
| U47G U57G C61G C67U | 0.000132 ± 5.3e-05 | 0.000254 ± 6.6e-05 |  |
| U31A U46G A48G | < 1e-05 |  |  |
| G41C C50G G51C | < 1e-05 |  |  |
| G7U U31G C70A | 0.000541 ± 0.00017 |  |  |
| A48U U55G C71A | 2.8e-05 ± 1.3e-05 |  |  |
| C34G U49A G66A | < 1e-05 |  |  |
| C8U A15U A48C A52C C70U | < 1e-05 |  |  |
| C11U G35U G44A | < 1e-05 | < 1e-05 |  |
